Patent US20240252592A1 (TIANJIN INSTITUTE OF PHARMACEUTICAL RESEARCH, published 2024)
Numbered stars: 1 amine (or outer) side, 2 acyl side, 3 side chain; on linkers, the order of the positions; unused ones are H or OH. Square brackets hold non-standard residues; d marks the D form. Side chains are listed from the residue outwards. Ends that are not written are not given here. * marks the point of attachment. C18 diacid = O=C(O)CCCCCCCCCCCCCCCCC(=O)*; γGlu = O=C(O)[C@H](CCC(=O)[*:2])N[*:1]; Palmitoyl = CCCCCCCCCCCCCCCC(=O)*; AEEA = NCCOCCOCC(=O)O; Aib = CC(C)(N)C(=O)O

Key:
GC receptor = assay: cell-based or functional assay
human GLP-1 receptor = human GLP-1 receptor (human, UniProt P43220 24-463); assay: cell-based or functional assay

B1: Compound 25 (peptide)
peptide: HXQGTFTSDKSKYLEERAAKEFVEWLLEAGGPSSG
HELM: PEPTIDE1{H.[Aib].Q.G.T.F.T.S.D.K.S.K.Y.L.E.E.R.A.A.K.E.F.V.E.W.L.L.E.A.G.G.P.S.S.G.[am]}|PEPTIDE2{[CCCCCCCCCCCCCCCC(=O)[*:2]].[gGlu].[gGlu]}$PEPTIDE1,PEPTIDE2,10:R3-3:R2$$$V2.0; N-terminus assumed
SMILES: CCCCCCCCCCCCCCCC(=O)N[C@@H](CCC(=O)N[C@@H](CCC(=O)NCCCC[C@H](NC(=O)[C@H](CC(=O)O)NC(=O)[C@H](CO)NC(=O)[C@@H](NC(=O)[C@H](Cc1ccccc1)NC(=O)[C@@H](NC(=O)CNC(=O)[C@H](CCC(N)=O)NC(=O)C(C)(C)NC(=O)[C@@H](N)Cc1c[nH]cn1)[C@@H](C)O)[C@@H](C)O)C(=O)N[C@@H](CO)C(=O)N[C@@H](CCCCN)C(=O)N[C@@H](Cc1ccc(O)cc1)C(=O)N[C@@H](CC(C)C)C(=O)N[C@@H](CCC(=O)O)C(=O)N[C@@H](CCC(=O)O)C(=O)N[C@@H](CCCNC(=N)N)C(=O)N[C@@H](C)C(=O)N[C@@H](C)C(=O)N[C@@H](CCCCN)C(=O)N[C@@H](CCC(=O)O)C(=O)N[C@@H](Cc1ccccc1)C(=O)N[C@H](C(=O)N[C@@H](CCC(=O)O)C(=O)N[C@@H](Cc1c[nH]c2ccccc12)C(=O)N[C@@H](CC(C)C)C(=O)N[C@@H](CC(C)C)C(=O)N[C@@H](CCC(=O)O)C(=O)N[C@@H](C)C(=O)NCC(=O)NCC(=O)N1CCC[C@H]1C(=O)N[C@@H](CO)C(=O)N[C@@H](CO)C(=O)NCC(N)=O)C(C)C)C(=O)O)C(=O)O
GC receptor
  EC50 of GC receptor mediated cAMP production: 0.278 nM
Human GLP-1 receptor
  EC50 of GLP-1 receptor mediated cAMP production: 0.211 nM

B2: Compound 26 (peptide)
peptide: HXQGTFTSDYSKYLEEKRAKEFVEWLLEAGGPSSG
HELM: PEPTIDE1{H.[Aib].Q.G.T.F.T.S.D.Y.S.K.Y.L.E.E.K.R.A.K.E.F.V.E.W.L.L.E.A.G.G.P.S.S.G.[am]}|PEPTIDE2{[CCCCCCCCCCCCCCCC(=O)[*:2]].[gGlu].[gGlu]}$PEPTIDE1,PEPTIDE2,20:R3-3:R2$$$V2.0; N-terminus assumed
SMILES: CCCCCCCCCCCCCCCC(=O)N[C@@H](CCC(=O)N[C@@H](CCC(=O)NCCCC[C@H](NC(=O)[C@H](C)NC(=O)[C@H](CCCNC(=N)N)NC(=O)[C@H](CCCCN)NC(=O)[C@H](CCC(=O)O)NC(=O)[C@H](CCC(=O)O)NC(=O)[C@H](CC(C)C)NC(=O)[C@H](Cc1ccc(O)cc1)NC(=O)[C@H](CCCCN)NC(=O)[C@H](CO)NC(=O)[C@H](Cc1ccc(O)cc1)NC(=O)[C@H](CC(=O)O)NC(=O)[C@H](CO)NC(=O)[C@@H](NC(=O)[C@H](Cc1ccccc1)NC(=O)[C@@H](NC(=O)CNC(=O)[C@H](CCC(N)=O)NC(=O)C(C)(C)NC(=O)[C@@H](N)Cc1c[nH]cn1)[C@@H](C)O)[C@@H](C)O)C(=O)N[C@@H](CCC(=O)O)C(=O)N[C@@H](Cc1ccccc1)C(=O)N[C@H](C(=O)N[C@@H](CCC(=O)O)C(=O)N[C@@H](Cc1c[nH]c2ccccc12)C(=O)N[C@@H](CC(C)C)C(=O)N[C@@H](CC(C)C)C(=O)N[C@@H](CCC(=O)O)C(=O)N[C@@H](C)C(=O)NCC(=O)NCC(=O)N1CCC[C@H]1C(=O)N[C@@H](CO)C(=O)N[C@@H](CO)C(=O)NCC(N)=O)C(C)C)C(=O)O)C(=O)O
GC receptor
  EC50 of GC receptor mediated cAMP production: 0.197 nM
Human GLP-1 receptor
  EC50 of GLP-1 receptor mediated cAMP production: 0.193 nM

## H[Aib]QGTFTSDK([AEEA-AEEA-γGlu-C18 diacid])SKYLEERAAKEFVAWLEAGGPSSG-NH2 (not fully specified; printed as HAibQGTFTSDK**SKYLEERAAKEFVAWLEAGGPSSG-Amid) [Compound 22]
GC receptor
  EC50 of GC receptor mediated cAMP production: 0.018 nM
Human GLP-1 receptor
  EC50 of GLP-1 receptor mediated cAMP production: 0.027 nM

B3: Compound 19 (peptide)
peptide: HXQGTFTSDKSKYLESERAKEFVEWLVKEGGPSSG
HELM: PEPTIDE1{H.[Aib].Q.G.T.F.T.S.D.K.S.K.Y.L.E.S.E.R.A.K.E.F.V.E.W.L.V.K.E.G.G.P.S.S.G.[am]}|PEPTIDE2{[CCCCCCCCCCCCCCCC(=O)[*:2]].[gGlu].[gGlu]}$PEPTIDE1,PEPTIDE2,10:R3-3:R2$$$V2.0; N-terminus assumed
SMILES: CCCCCCCCCCCCCCCC(=O)N[C@@H](CCC(=O)N[C@@H](CCC(=O)NCCCC[C@H](NC(=O)[C@H](CC(=O)O)NC(=O)[C@H](CO)NC(=O)[C@@H](NC(=O)[C@H](Cc1ccccc1)NC(=O)[C@@H](NC(=O)CNC(=O)[C@H](CCC(N)=O)NC(=O)C(C)(C)NC(=O)[C@@H](N)Cc1c[nH]cn1)[C@@H](C)O)[C@@H](C)O)C(=O)N[C@@H](CO)C(=O)N[C@@H](CCCCN)C(=O)N[C@@H](Cc1ccc(O)cc1)C(=O)N[C@@H](CC(C)C)C(=O)N[C@@H](CCC(=O)O)C(=O)N[C@@H](CO)C(=O)N[C@@H](CCC(=O)O)C(=O)N[C@@H](CCCNC(=N)N)C(=O)N[C@@H](C)C(=O)N[C@@H](CCCCN)C(=O)N[C@@H](CCC(=O)O)C(=O)N[C@@H](Cc1ccccc1)C(=O)N[C@H](C(=O)N[C@@H](CCC(=O)O)C(=O)N[C@@H](Cc1c[nH]c2ccccc12)C(=O)N[C@@H](CC(C)C)C(=O)N[C@H](C(=O)N[C@@H](CCCCN)C(=O)N[C@@H](CCC(=O)O)C(=O)NCC(=O)NCC(=O)N1CCC[C@H]1C(=O)N[C@@H](CO)C(=O)N[C@@H](CO)C(=O)NCC(N)=O)C(C)C)C(C)C)C(=O)O)C(=O)O
GC receptor
  EC50 of GC receptor mediated cAMP production: 6.25 nM
Human GLP-1 receptor
  EC50 of GLP-1 receptor mediated cAMP production: 3.53 nM

## H[Aib]QGTFTSDYSKYLEERAAK([AEEA-AEEA-γGlu-C18 diacid])EFVEWLEGGPSSG-NH2 (not fully specified; printed as HAibQGTFTSDYSKYLEERAAK**EFVEWLEGGPSSG-Amid) [Compound 32]
GC receptor
  EC50 of GC receptor mediated cAMP production: 0.077 nM
Human GLP-1 receptor
  EC50 of GLP-1 receptor mediated cAMP production: 1.01 nM

## H[Aib]QGTFTSDK([AEEA-AEEA-γGlu-C18 diacid])SKYLEERAAKEFIAWLEAGGPSSG-NH2 (not fully specified; printed as HAibQGTFTSDK**SKYLEERAAKEFIAWLEAGGPSSG-Amid) [Compound 27]
GC receptor
  EC50 of GC receptor mediated cAMP production: 0.014 nM
Human GLP-1 receptor
  EC50 of GLP-1 receptor mediated cAMP production: 0.011 nM

## H[Aib]QGTFTSDK([γGlu-γGlu-Palmitoyl])SKYLEERAAKEFIAWLEGGPSSG-NH2 (not fully specified; printed as HAibQGTFTSDK*SKYLEERAAKEFIAWLEGGPSSG-Amid) [Compound 21]
GC receptor
  EC50 of GC receptor mediated cAMP production: 0.175 nM
Human GLP-1 receptor
  EC50 of GLP-1 receptor mediated cAMP production: 0.83 nM

B4: Compound 36 (peptide)
peptide: HXQGTFTSDKSKYLXERAAKEFIXWLEAGGPSSG
modifications: not fully specified; Lys 10 side chain -Ado-Ado-γE-OC17H32COOH; C-terminal amide
GC receptor
  EC50 of GC receptor mediated cAMP production: 0.069 nM
Human GLP-1 receptor
  EC50 of GLP-1 receptor mediated cAMP production: 0.072 nM

B5: Compound 23 (peptide)
peptide: H[Aib]QGTFTSDK([AEEA-AEEA-γGlu-C18 diacid])SKYLDEKRAKEFIEWLEAGGPSSG-NH2
modifications: N-terminus assumed
SMILES: CC[C@H](C)[C@H](NC(=O)[C@H](Cc1ccccc1)NC(=O)[C@H](CCC(=O)O)NC(=O)[C@H](CCCCN)NC(=O)[C@H](C)NC(=O)[C@H](CCCNC(=N)N)NC(=O)[C@H](CCCCN)NC(=O)[C@H](CCC(=O)O)NC(=O)[C@H](CC(=O)O)NC(=O)[C@H](CC(C)C)NC(=O)[C@H](Cc1ccc(O)cc1)NC(=O)[C@H](CCCCN)NC(=O)[C@H](CO)NC(=O)[C@H](CCCCNC(=O)COCCOCCNC(=O)COCCOCCNC(=O)CC[C@H](NC(=O)CCCCCCCCCCCCCCCCC(=O)O)C(=O)O)NC(=O)[C@H](CC(=O)O)NC(=O)[C@H](CO)NC(=O)[C@@H](NC(=O)[C@H](Cc1ccccc1)NC(=O)[C@@H](NC(=O)CNC(=O)[C@H](CCC(N)=O)NC(=O)C(C)(C)NC(=O)[C@@H](N)Cc1c[nH]cn1)[C@@H](C)O)[C@@H](C)O)C(=O)N[C@@H](CCC(=O)O)C(=O)N[C@@H](Cc1c[nH]c2ccccc12)C(=O)N[C@@H](CC(C)C)C(=O)N[C@@H](CCC(=O)O)C(=O)N[C@@H](C)C(=O)NCC(=O)NCC(=O)N1CCC[C@H]1C(=O)N[C@@H](CO)C(=O)N[C@@H](CO)C(=O)NCC(N)=O
GC receptor
  EC50 of GC receptor mediated cAMP production: 0.329 nM
Human GLP-1 receptor
  EC50 of GLP-1 receptor mediated cAMP production: 0.194 nM

B6: Compound 17 (peptide)
peptide: H[Aib]QGTFTSDK([AEEA-AEEA-γGlu-C18 diacid])SKYLEERAAKEFVAWLKEGGPSSG-NH2
modifications: N-terminus assumed
SMILES: CC(C)C[C@H](NC(=O)[C@H](Cc1c[nH]c2ccccc12)NC(=O)[C@H](C)NC(=O)[C@@H](NC(=O)[C@H](Cc1ccccc1)NC(=O)[C@H](CCC(=O)O)NC(=O)[C@H](CCCCN)NC(=O)[C@H](C)NC(=O)[C@H](C)NC(=O)[C@H](CCCNC(=N)N)NC(=O)[C@H](CCC(=O)O)NC(=O)[C@H](CCC(=O)O)NC(=O)[C@H](CC(C)C)NC(=O)[C@H](Cc1ccc(O)cc1)NC(=O)[C@H](CCCCN)NC(=O)[C@H](CO)NC(=O)[C@H](CCCCNC(=O)COCCOCCNC(=O)COCCOCCNC(=O)CC[C@H](NC(=O)CCCCCCCCCCCCCCCCC(=O)O)C(=O)O)NC(=O)[C@H](CC(=O)O)NC(=O)[C@H](CO)NC(=O)[C@@H](NC(=O)[C@H](Cc1ccccc1)NC(=O)[C@@H](NC(=O)CNC(=O)[C@H](CCC(N)=O)NC(=O)C(C)(C)NC(=O)[C@@H](N)Cc1c[nH]cn1)[C@@H](C)O)[C@@H](C)O)C(C)C)C(=O)N[C@@H](CCCCN)C(=O)N[C@@H](CCC(=O)O)C(=O)NCC(=O)NCC(=O)N1CCC[C@H]1C(=O)N[C@@H](CO)C(=O)N[C@@H](CO)C(=O)NCC(N)=O
GC receptor
  EC50 of GC receptor mediated cAMP production: 0.486 nM
Human GLP-1 receptor
  EC50 of GLP-1 receptor mediated cAMP production: 2.21 nM
